{
  "source": "the supplement of paper PMC9170038",
  "system": "MS2 coat protein",
  "experiment": "apparent KD of MS2 coat protein; higher = weaker reporter binding",
  "details": "Eterna round: R107",
  "method": "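RNA-MaP round R107: designed RNA switches with theophylline, tryptophan, arginine or FMN aptamers are transcribed on-chip within common flanks. They are titrated with SNAP-549-labelled MS2 coat protein in RNA-MaP buffer (100 mM Tris pH 7.5, 80 mM KCl, 4 mM MgCl2), without ligand or with the indicated ligand. Median apparent KD per design.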",
  "key": {"[1]": {"details": "input ligand: theophylline 20 uM"}, "[2]": {"details": "input ligand: tryptophan 2.4 mM"}, "[3]": {"details": "input ligand: theophylline 2 mM"}},
  "data": [
    {"sequence": "GGUGGGACUUGUGAUACCAGCCUAAUUCGAAUCGAAUUGCACAUGAGGAUCACCCAUGUCGGCCCUUGGCAGCAUGAGUAUUUAU [Aagexe]", "values": [
      {"measurement": "apparent KD of MS2 coat protein", "setting": "input ligand: arginine 13.2 mM", "value": 104, "unit": "nM"},
      {"measurement": "apparent KD of MS2 coat protein", "setting": "[1]", "value": 129, "unit": "nM"},
      {"measurement": "apparent KD of MS2 coat protein", "setting": "[2]", "value": 255, "unit": "nM"}
    ]},
    {"sequence": "AGUGUAUCCAUCGAUACCAGCCACAACGUAACAUACACAUGAGGAUCACCCAUGUUGUGUGGCCCUUGGCAGCGGUGCCUGUGUA [Same State - Theophylline B Attempt #1 (HarryS)]", "values": [
      {"measurement": "apparent KD of MS2 coat protein", "setting": "input ligand: arginine 13.2 mM", "value": 14.4, "unit": "nM"},
      {"measurement": "apparent KD of MS2 coat protein", "setting": "[1]", "value": 16.4, "unit": "nM"},
      {"measurement": "apparent KD of MS2 coat protein", "setting": "[2]", "value": 13.9, "unit": "nM"}
    ]},
    {"sequence": "UCGACAGUGAACGAUACCAGCGUCACGUGGCCGGUGGUCACAUGAGGAUCACCCAUGUAACGCCCUUGGCAGCGUGCACGUAUCC [Berisoor]", "values": [
      {"measurement": "apparent KD of MS2 coat protein", "setting": "input ligand: arginine 13.2 mM", "value": 17.5, "unit": "nM"},
      {"measurement": "apparent KD of MS2 coat protein", "setting": "[1]", "value": 78, "unit": "nM"},
      {"measurement": "apparent KD of MS2 coat protein", "setting": "[2]", "value": 25.5, "unit": "nM"}
    ]},
    {"sequence": "GACUAUAUGAUAUGUCAGAAAUCCUCGAAACGAGGACCGGUACGGCCGCCACUCGAGUGAUCAACAUGAGGAUCACCCAUGUAAA [Tryp A Ex t1]", "values": [
      {"measurement": "apparent KD of MS2 coat protein", "setting": "input ligand: arginine 13.2 mM", "value": 36.1, "unit": "nM"},
      {"measurement": "apparent KD of MS2 coat protein", "setting": "input ligand: none", "value": 36.2, "unit": "nM"},
      {"measurement": "apparent KD of MS2 coat protein", "setting": "[1]", "value": 47.5, "unit": "nM"},
      {"measurement": "apparent KD of MS2 coat protein", "setting": "[3]", "value": 28.4, "unit": "nM"},
      {"measurement": "apparent KD of MS2 coat protein", "setting": "[2]", "value": 55.3, "unit": "nM"}
    ]},
    {"sequence": "GUCAGAACAUAUCAUGUUCUGGCACUGGAAGGAGCGAGCGAGAGCUCAGGUAGGUCGCCAGAACAUGAGGAUCACCCAUGUAAUA [(A)''-(M)'-(A)'(Arg1)-(Arg2)-(M1)-(M2)_Design11]", "values": [
      {"measurement": "apparent KD of MS2 coat protein", "setting": "input ligand: arginine 13.2 mM", "value": 50.5, "unit": "nM"},
      {"measurement": "apparent KD of MS2 coat protein", "setting": "input ligand: none", "value": 63.4, "unit": "nM"},
      {"measurement": "apparent KD of MS2 coat protein", "setting": "[1]", "value": 95.2, "unit": "nM"},
      {"measurement": "apparent KD of MS2 coat protein", "setting": "[3]", "value": 296, "unit": "nM"},
      {"measurement": "apparent KD of MS2 coat protein", "setting": "[2]", "value": 49, "unit": "nM"}
    ]},
    {"sequence": "UUUAUUAUUGACUCGUUUUGGUAUUAAGAACGAGGACCGGUACGGCCGCCACUCGUGAUAUACAUGAGGAUCACCCAUGUUAGCA [JR_Nu_SSTryptoA_Sub021]", "values": [
      {"measurement": "apparent KD of MS2 coat protein", "setting": "input ligand: arginine 13.2 mM", "value": 19.4, "unit": "nM"},
      {"measurement": "apparent KD of MS2 coat protein", "setting": "[1]", "value": 19.4, "unit": "nM"},
      {"measurement": "apparent KD of MS2 coat protein", "setting": "[3]", "value": 18.3, "unit": "nM"}
    ]},
    {"sequence": "GGACUAACCAGAAGGAGCGACACGCAGAAACUGCAAAUUCCUCUGCACGAGGAUCACCCGUGUCAGGUAGGUCGCUGGUUAGUCG", "values": [
      {"measurement": "apparent KD of MS2 coat protein", "setting": "input ligand: arginine 13.2 mM", "value": 29.9, "unit": "nM"},
      {"measurement": "apparent KD of MS2 coat protein", "setting": "input ligand: none", "value": 27.4, "unit": "nM"},
      {"measurement": "apparent KD of MS2 coat protein", "setting": "[1]", "value": 35.5, "unit": "nM"},
      {"measurement": "apparent KD of MS2 coat protein", "setting": "[3]", "value": 36.6, "unit": "nM"},
      {"measurement": "apparent KD of MS2 coat protein", "setting": "[2]", "value": 26.9, "unit": "nM"}
    ]},
    {"sequence": "UUUAUGGAGCUUUUAUUUACGAUUUCUGAUACCAGUGUUUCAUUUCACCCUUGGCAGCAGUGACAUGAGGAUCACCCAUGUAAUA [JR_Nu_SSTheophyA_Sub020]", "values": [
      {"measurement": "apparent KD of MS2 coat protein", "setting": "input ligand: arginine 13.2 mM", "value": 28.1, "unit": "nM"},
      {"measurement": "apparent KD of MS2 coat protein", "setting": "[1]", "value": 35.1, "unit": "nM"},
      {"measurement": "apparent KD of MS2 coat protein", "setting": "[2]", "value": 27.7, "unit": "nM"}
    ]},
    {"sequence": "CGGUACAUGAGGAUCACCCAUGUGUCGGAUACCAGAGAGCCGUCUCUCCCUUGGCAGCUGGUUUUACAUGAGGAUCACCCAUGUG [Exclusion Theophylline A GF20]", "values": [
      {"measurement": "apparent KD of MS2 coat protein", "setting": "input ligand: arginine 13.2 mM", "value": 12.5, "unit": "nM"},
      {"measurement": "apparent KD of MS2 coat protein", "setting": "[1]", "value": 15.2, "unit": "nM"},
      {"measurement": "apparent KD of MS2 coat protein", "setting": "[2]", "value": 12.6, "unit": "nM"}
    ]},
    {"sequence": "AAAAUCCUACCUGAGGAUCACCCGGGUGAAGGAGCGCCCGAAAGGGCAGGUAGGUCGCACCUGAGGAUCACCCUGGUAAACCUAA [ArgEX 23 #DoubleMS2 #OpenEnded]", "values": [
      {"measurement": "apparent KD of MS2 coat protein", "setting": "input ligand: arginine 13.2 mM", "value": 103, "unit": "nM"},
      {"measurement": "apparent KD of MS2 coat protein", "setting": "input ligand: none", "value": 172, "unit": "nM"},
      {"measurement": "apparent KD of MS2 coat protein", "setting": "[1]", "value": 183, "unit": "nM"},
      {"measurement": "apparent KD of MS2 coat protein", "setting": "[3]", "value": 234, "unit": "nM"},
      {"measurement": "apparent KD of MS2 coat protein", "setting": "[2]", "value": 154, "unit": "nM"}
    ]},
    {"sequence": "CAACUGCUUGAGCUUACUUAUUGGACUUCCCGAGGACCGGUACGGCCGCCACUCGCAGGGACACAUGAGGAUCACCCAUGUAAAG [theeternabot_exclusion_MS2_Trp_A_42]", "values": [
      {"measurement": "apparent KD of MS2 coat protein", "setting": "input ligand: arginine 13.2 mM", "value": 17.3, "unit": "nM"},
      {"measurement": "apparent KD of MS2 coat protein", "setting": "[1]", "value": 21.1, "unit": "nM"},
      {"measurement": "apparent KD of MS2 coat protein", "setting": "[3]", "value": 19.6, "unit": "nM"}
    ]},
    {"sequence": "CCAUAUGUAACUGAUACCAGUGUACUGACAUGAGGAUCACCCAUGUUGGGUUUUGUUGUACACCCUUGGCAGCAGAAUCAUAUGG [AstrosExyTheB#17]", "values": [
      {"measurement": "apparent KD of MS2 coat protein", "setting": "input ligand: arginine 13.2 mM", "value": 48.3, "unit": "nM"},
      {"measurement": "apparent KD of MS2 coat protein", "setting": "[1]", "value": 73.6, "unit": "nM"},
      {"measurement": "apparent KD of MS2 coat protein", "setting": "[2]", "value": 53.9, "unit": "nM"}
    ]},
    {"sequence": "AUGCACGGGCUAAUCUGCGAUUGGCACGAUACCAGAGAUCAAGACCUCCCUUGGCAGCGUGUCACAUGAGGAUCACCCAUGUGGA [theeternabot_exclusion_MS2_Theo_A_40]", "values": [
      {"measurement": "apparent KD of MS2 coat protein", "setting": "input ligand: arginine 13.2 mM", "value": 43.4, "unit": "nM"},
      {"measurement": "apparent KD of MS2 coat protein", "setting": "[1]", "value": 127, "unit": "nM"},
      {"measurement": "apparent KD of MS2 coat protein", "setting": "[2]", "value": 141, "unit": "nM"}
    ]},
    {"sequence": "UGCCCUGCGAGCGCUCGCAGGGCAGCGGAUACCAGCGAGGUCCAUCGCCCUUGGCAGCCGAACAUGAGGAUCACCCAUGUCGGUG [Same State - Theophylline A Attempt #9 (HarryS)]", "values": [
      {"measurement": "apparent KD of MS2 coat protein", "setting": "input ligand: arginine 13.2 mM", "value": 11.4, "unit": "nM"},
      {"measurement": "apparent KD of MS2 coat protein", "setting": "input ligand: none", "value": 14.1, "unit": "nM"},
      {"measurement": "apparent KD of MS2 coat protein", "setting": "[1]", "value": 18.9, "unit": "nM"},
      {"measurement": "apparent KD of MS2 coat protein", "setting": "[3]", "value": 144, "unit": "nM"},
      {"measurement": "apparent KD of MS2 coat protein", "setting": "[2]", "value": 13.2, "unit": "nM"}
    ]},
    {"sequence": "GCACUACAUGAGGAUCACCCAUGUGCAGAUACCAGAGGUGUAUGCCUCCCUUGGCAGCUGCGUCGCUCUGGAAGCCUAUUGGUUU [Same State Theophylline A GF16]", "values": [
      {"measurement": "apparent KD of MS2 coat protein", "setting": "input ligand: arginine 13.2 mM", "value": 15.8, "unit": "nM"},
      {"measurement": "apparent KD of MS2 coat protein", "setting": "[1]", "value": 25.5, "unit": "nM"},
      {"measurement": "apparent KD of MS2 coat protein", "setting": "[2]", "value": 18.4, "unit": "nM"}
    ]}
  ]
}
